{
  "source": "patent US20260337263",
  "about": "(published 2026)",
  "target": "T1, soluble mesothelin (human, UniProt Q13421)",
  "T1 chain": "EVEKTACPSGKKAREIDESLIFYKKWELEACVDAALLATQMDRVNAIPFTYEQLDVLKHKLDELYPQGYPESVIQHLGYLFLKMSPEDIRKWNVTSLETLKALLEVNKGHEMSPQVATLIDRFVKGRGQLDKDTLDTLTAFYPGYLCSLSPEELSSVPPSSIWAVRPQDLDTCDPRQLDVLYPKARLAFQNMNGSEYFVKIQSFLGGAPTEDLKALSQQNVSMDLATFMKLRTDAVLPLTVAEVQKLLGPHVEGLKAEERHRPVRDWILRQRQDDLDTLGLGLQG",
  "test": "ELISA",
  "data": [
    {"binder": "Gly1-2-H4 (antibody, V domains shown) VH: QVQLVQSGAEVKKPGSSVKVSCKSSGGTFSSDTINWVRQAPGQGLEWMGWINPNSGGTNYAQKFQGWVTMTRDTSISTAYMELSRLRSDDTAVYYCARESALGGSYPLSFWGQGTLVTVSS VL: ETTLTQSPGTLSLSPGERATLSCRASQSVSSSYLAWYQQKPGQAPRLLIYGASSRATGIPDRFSGSGSGTDFTLTISRLEPEDSATYYCLQDDSYPLTFGQGTKVEIK", "values": [
      {"measurement": "binding result", "value": "no binding"}
    ]}
  ]
}
